Source: patent publication US20240182536A1 (MURAL ONCOLOGY, published 2024)

T1: interleukin 18 binding protein (IL-18BP) (UniProt O95998 31-194)
T1 sequence (looked up): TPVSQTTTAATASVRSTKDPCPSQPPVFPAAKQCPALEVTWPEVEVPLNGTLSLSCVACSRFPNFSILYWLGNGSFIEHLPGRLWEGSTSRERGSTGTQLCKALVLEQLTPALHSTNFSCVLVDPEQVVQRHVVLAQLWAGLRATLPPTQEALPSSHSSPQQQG

T2: IL-18 receptors on HEK-Blue IL-18 reporter cells (UniProt Q13478 19-541; O95256 20-599, limits assumed)
T2 sequence (looked up) 1: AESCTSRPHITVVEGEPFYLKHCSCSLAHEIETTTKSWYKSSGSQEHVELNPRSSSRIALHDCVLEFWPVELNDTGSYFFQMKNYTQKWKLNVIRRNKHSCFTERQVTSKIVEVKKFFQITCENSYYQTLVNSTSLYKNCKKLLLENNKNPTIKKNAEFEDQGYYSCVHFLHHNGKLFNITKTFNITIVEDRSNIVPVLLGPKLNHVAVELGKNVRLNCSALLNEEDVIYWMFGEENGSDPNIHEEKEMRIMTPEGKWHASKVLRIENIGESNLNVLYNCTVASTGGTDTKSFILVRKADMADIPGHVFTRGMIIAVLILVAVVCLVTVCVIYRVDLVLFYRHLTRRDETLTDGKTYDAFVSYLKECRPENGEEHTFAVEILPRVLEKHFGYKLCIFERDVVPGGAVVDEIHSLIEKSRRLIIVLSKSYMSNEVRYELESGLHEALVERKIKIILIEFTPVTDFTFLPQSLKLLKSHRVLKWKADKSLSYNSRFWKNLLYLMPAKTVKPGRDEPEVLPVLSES
T2 sequence (looked up) 2: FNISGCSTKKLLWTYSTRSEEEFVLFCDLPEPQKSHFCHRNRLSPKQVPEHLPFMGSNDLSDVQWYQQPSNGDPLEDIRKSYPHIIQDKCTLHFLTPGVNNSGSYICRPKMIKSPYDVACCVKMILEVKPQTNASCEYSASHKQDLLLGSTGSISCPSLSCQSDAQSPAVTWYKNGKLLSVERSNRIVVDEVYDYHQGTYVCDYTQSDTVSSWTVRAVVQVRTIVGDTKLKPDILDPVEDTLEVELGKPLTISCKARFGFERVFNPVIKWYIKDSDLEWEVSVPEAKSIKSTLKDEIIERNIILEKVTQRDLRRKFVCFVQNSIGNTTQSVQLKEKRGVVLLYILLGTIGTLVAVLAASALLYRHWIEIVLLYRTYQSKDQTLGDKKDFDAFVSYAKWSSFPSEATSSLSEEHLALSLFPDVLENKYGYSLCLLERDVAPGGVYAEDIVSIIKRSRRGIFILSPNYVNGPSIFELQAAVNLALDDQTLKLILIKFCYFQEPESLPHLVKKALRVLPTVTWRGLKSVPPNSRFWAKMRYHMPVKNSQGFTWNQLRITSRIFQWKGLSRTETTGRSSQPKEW


Tests used:
[1] = biological target: T1, interleukin 18 binding protein (IL-18BP); assay: cell-based or functional assay
[2] = biological target: T2, IL-18 receptors on HEK-Blue IL-18 …; assay: cell-based or functional assay

Binder	HEK-Blue activity, +100 nM BP, DF-10000 [1]	HEK-Blue activity, +100 nM BP, DF-100,000 [1]	HEK-Blue activity, +100 nM BP, DF-1,000,000 [1]	Ratio (-BP/+BP), DF-10000 [1]	Ratio (-BP/+BP), DF-100,000 [1]	Ratio (-BP/+BP), DF-1,000,000 [1]	HEK-Blue activity, No BP, DF-10000 [2]	HEK-Blue activity, No BP, DF-100,000 [2]	HEK-Blue activity, No BP, DF-1,000,000 [2]
IL-18 variant S7Y, K53H, S55M (ligand) YFGKLEYKLSVIRNLNDQVLFIDQGNRPLFEDMTDSDMRDNAPRTIFIISMYHDMQPRGMAVTISVKSEKISTLSSENKIISFKEMNPPDNIKDTKSDIIFFQRSVPGHDNKMQFESSSYEGYFLASEKERDLFKLILKKEDELGDRSIMFTVQNED	0.16	0.15	0.18	1.33	0.94	0.98	0.21	0.14	0.18
IL-18 variant K53N, S55A, R104N, P107A, H109Y (ligand) YFGKLESKLSVIRNLNDQVLFIDQGNRPLFEDMTDSDMRDNAPRTIFIISMYNDAQPRGMAVTISVKSEKISTLSSENKIISFKEMNPPDNIKDTKSDIIFFQNSVAGYDNKMQFESSSYEGYFLASEKERDLFKLILKKEDELGDRSIMFTVQNED	0.13	0.12	0.14	1.64	1.1	0.93	0.21	0.13	0.13
IL-18 variant K53V, S55Q (ligand) YFGKLESKLSVIRNLNDQVLFIDQGNRPLFEDMTDSDMRDNAPRTIFIISMYVDQQPRGMAVTISVKSEKISTLSSENKIISFKEMNPPDNIKDTKSDIIFFQRSVPGHDNKMQFESSSYEGYFLASEKERDLFKLILKKEDELGDRSIMFTVQNED	0.2	0.17	0.13	1	0.81	0.88	0.2	0.14	0.11
IL-18 variant K53G, S55P, R104K, H109Y (ligand) YFGKLESKLSVIRNLNDQVLFIDQGNRPLFEDMTDSDMRDNAPRTIFIISMYGDPQPRGMAVTISVKSEKISTLSSENKIISFKEMNPPDNIKDTKSDIIFFQKSVPGYDNKMQFESSSYEGYFLASEKERDLFKLILKKEDELGDRSIMFTVQNED	0.12	0.09	0.09	1.72	1.3	1.2	0.21	0.12	0.1
IL-18 variant K53D, S55Q, P107M (ligand) YFGKLESKLSVIRNLNDQVLFIDQGNRPLFEDMTDSDMRDNAPRTIFIISMYDDQQPRGMAVTISVKSEKISTLSSENKIISFKEMNPPDNIKDTKSDIIFFQRSVMGHDNKMQFESSSYEGYFLASEKERDLFKLILKKEDELGDRSIMFTVQNED	0.22	0.14	0.13	0.85	0.97	1.02	0.19	0.13	0.13
IL-18 variant S36E, D37E, D40R, N41G, K53Y, S55F (ligand) YFGKLESKLSVIRNLNDQVLFIDQGNRPLFEDMTDEEMRRGAPRTIFIISMYYDFQPRGMAVTISVKSEKISTLSSENKIISFKEMNPPDNIKDTKSDIIFFQRSVPGHDNKMQFESSSYEGYFLASEKERDLFKLILKKEDELGDRSIMFTVQNED	0.16	0.19	0.14	1.19	0.64	1.06	0.2	0.12	0.14
